Results from patent US20030186281A1, “Modified tetracycline repressor protein compositions and methods of use” (priority 2001, published 2003).

Tested on: tet operator sequence
Experiment: β-galactosidase activity of a tetracycline-regulated promoter in transformed E. coli with revTetR, in the presence and absence of anhydrotetracycline (atc)
Assay type: cell-based, Escherichia coli
Details: for β-Galactosidase Activity, Cultured Without ATC: RevTetR isolate cultured in the absence of anhydrotetracycline (ATC); for β-Galactosidase Activity, Cultured With ATC: RevTetR isolate cultured in the presence of anhydrotetracycline (ATC)
Outline: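 TetR(BD) chimera mutants (TetR(B) residues 1–50, TetR(D) 51–208) expressed in E. coli regulating a tet operator-controlled lacZ. β-Galactosidase measured in Miller units at 28 °C and 37 °C with and without anhydrotetracycline; reported as percent of maximal expression without Tet repressor.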

| Molecule | β-Galactosidase Activity, Cultured Without ATC | β-Galactosidase Activity, Cultured With ATC |
| --- | --- | --- |
| TetRrev96/99-6: revTetR(BD) G96N V99Q (protein, Modified tetracycline repressor, revTetR(BD) G96N V99Q) MSRLDKSKVINSALELLNEVGIEGLTTRKLAQKLGVEQPTLYWHVKNKRALLDALAVEILARHHDYSLPAAGESWQSFLRNNAMSFRRALLRYRDNAKQHLGTRPDEKQYDTVETQLRFMTENGFSLRDGLYAISAVSHFTLGAVLEQQEHTAALTDRPAAPDENLPPLLREALQIMDSDDGEQAFLHGLESLIRGFEVQLTALLQIV | 103.602 | 28.364 |
| TetRrev96/99-14: revTetR(BD) G96N V99N (protein, Modified tetracycline repressor, revTetR(BD) G96N V99N) MSRLDKSKVINSALELLNEVGIEGLTTRKLAQKLGVEQPTLYWHVKNKRALLDALAVEILARHHDYSLPAAGESWQSFLRNNAMSFRRALLRYRDNAKNHLGTRPDEKQYDTVETQLRFMTENGFSLRDGLYAISAVSHFTLGAVLEQQEHTAALTDRPAAPDENLPPLLREALQIMDSDDGEQAFLHGLESLIRGFEVQLTALLQIV | 110.999 | 14.693 |
| TetRrev96/99-15: revTetR(BD) G96P V99P (protein, Modified tetracycline repressor, revTetR(BD) G96P V99P) MSRLDKSKVINSALELLNEVGIEGLTTRKLAQKLGVEQPTLYWHVKNKRALLDALAVEILARHHDYSLPAAGESWQSFLRNNAMSFRRALLRYRDPAKPHLGTRPDEKQYDTVETQLRFMTENGFSLRDGLYAISAVSHFTLGAVLEQQEHTAALTDRPAAPDENLPPLLREALQIMDSDDGEQAFLHGLESLIRGFEVQLTALLQIV | 110.413 | 14.218 |
| TetRrev96/99-11: revTetR(BD) G96R V99Y (protein, Modified tetracycline repressor, revTetR(BD) G96R V99Y) MSRLDKSKVINSALELLNEVGIEGLTTRKLAQKLGVEQPTLYWHVKNKRALLDALAVEILARHHDYSLPAAGESWQSFLRNNAMSFRRALLRYRDRAKYHLGTRPDEKQYDTVETQLRFMTENGFSLRDGLYAISAVSHFTLGAVLEQQEHTAALTDRPAAPDENLPPLLREALQIMDSDDGEQAFLHGLESLIRGFEVQLTALLQIV | 97.6643 | 18.656 |
| TetRrev96/99-19: revTetR(BD) G96R V99S (protein, Modified tetracycline repressor, revTetR(BD) G96R V99S) MSRLDKSKVINSALELLNEVGIEGLTTRKLAQKLGVEQPTLYWHVKNKRALLDALAVEILARHHDYSLPAAGESWQSFLRNNAMSFRRALLRYRDRAKSHLGTRPDEKQYDTVETQLRFMTENGFSLRDGLYAISAVSHFTLGAVLEQQEHTAALTDRPAAPDENLPPLLREALQIMDSDDGEQAFLHGLESLIRGFEVQLTALLQIV | 95.188 | 7.4009 |
| TetRrev96/99-13: revTetR(BD) G96T V99D (protein, Modified tetracycline repressor, revTetR(BD) G96T V99D) MSRLDKSKVINSALELLNEVGIEGLTTRKLAQKLGVEQPTLYWHVKNKRALLDALAVEILARHHDYSLPAAGESWQSFLRNNAMSFRRALLRYRDTAKDHLGTRPDEKQYDTVETQLRFMTENGFSLRDGLYAISAVSHFTLGAVLEQQEHTAALTDRPAAPDENLPPLLREALQIMDSDDGEQAFLHGLESLIRGFEVQLTALLQIV | 103.963 | 16.95 |
| TetRrevAtc4-2: revTetR(BD) R49G L55L V57V E58N R62L H63Q (protein, Modified tetracycline repressor, revTetR(BD) R49G L55L V57V E58N R62L H63Q) MSRLDKSKVINSALELLNEVGIEGLTTRKLAQKLGVEQPTLYWHVKNKGALLDALAVNILALQHDYSLPAAGESWQSFLRNNAMSFRRALLRYRDGAKVHLGTRPDEKQYDTVETQLRFMTENGFSLRDGLYAISAVSHFTLGAVLEQQEHTAALTDRPAAPDENLPPLLREALQIMDSDDGEQAFLHGLESLIRGFEVQLTALLQIV | 3.143 | 0.9516 |
| TetRrev96/99-9: revTetR(BD) G96H V99N (protein, Modified tetracycline repressor, revTetR(BD) G96H V99N) MSRLDKSKVINSALELLNEVGIEGLTTRKLAQKLGVEQPTLYWHVKNKRALLDALAVEILARHHDYSLPAAGESWQSFLRNNAMSFRRALLRYRDHAKNHLGTRPDEKQYDTVETQLRFMTENGFSLRDGLYAISAVSHFTLGAVLEQQEHTAALTDRPAAPDENLPPLLREALQIMDSDDGEQAFLHGLESLIRGFEVQLTALLQIV | 71.6829 | 14.528 |
| TetRrev96/99-10: revTetR(BD) G96N V99P (protein, Modified tetracycline repressor, revTetR(BD) G96N V99P) MSRLDKSKVINSALELLNEVGIEGLTTRKLAQKLGVEQPTLYWHVKNKRALLDALAVEILARHHDYSLPAAGESWQSFLRNNAMSFRRALLRYRDNAKPHLGTRPDEKQYDTVETQLRFMTENGFSLRDGLYAISAVSHFTLGAVLEQQEHTAALTDRPAAPDENLPPLLREALQIMDSDDGEQAFLHGLESLIRGFEVQLTALLQIV | 106.137 | 20.797 |
| TetRrev96/99-12: revTetR(BD) G96H V99Q (protein, Modified tetracycline repressor, revTetR(BD) G96H V99Q) MSRLDKSKVINSALELLNEVGIEGLTTRKLAQKLGVEQPTLYWHVKNKRALLDALAVEILARHHDYSLPAAGESWQSFLRNNAMSFRRALLRYRDHAKQHLGTRPDEKQYDTVETQLRFMTENGFSLRDGLYAISAVSHFTLGAVLEQQEHTAALTDRPAAPDENLPPLLREALQIMDSDDGEQAFLHGLESLIRGFEVQLTALLQIV | 102.406 | 18.841 |
| TetRrev96/99-8: revTetR(BD) G96N V99H (protein, Modified tetracycline repressor, revTetR(BD) G96N V99H) MSRLDKSKVINSALELLNEVGIEGLTTRKLAQKLGVEQPTLYWHVKNKRALLDALAVEILARHHDYSLPAAGESWQSFLRNNAMSFRRALLRYRDNAKHHLGTRPDEKQYDTVETQLRFMTENGFSLRDGLYAISAVSHFTLGAVLEQQEHTAALTDRPAAPDENLPPLLREALQIMDSDDGEQAFLHGLESLIRGFEVQLTALLQIV | 103.657 | 24.309 |
| TetRrev96/99-7: revTetR(BD) G96L V99K (protein, Modified tetracycline repressor, revTetR(BD) G96L V99K) MSRLDKSKVINSALELLNEVGIEGLTTRKLAQKLGVEQPTLYWHVKNKRALLDALAVEILARHHDYSLPAAGESWQSFLRNNAMSFRRALLRYRDLAKKHLGTRPDEKQYDTVETQLRFMTENGFSLRDGLYAISAVSHFTLGAVLEQQEHTAALTDRPAAPDENLPPLLREALQIMDSDDGEQAFLHGLESLIRGFEVQLTALLQIV | 55.0127 | 13.224 |
| TetRrev96/99-18: revTetR(BD) G96T V99P (protein, Modified tetracycline repressor, revTetR(BD) G96T V99P) MSRLDKSKVINSALELLNEVGIEGLTTRKLAQKLGVEQPTLYWHVKNKRALLDALAVEILARHHDYSLPAAGESWQSFLRNNAMSFRRALLRYRDTAKPHLGTRPDEKQYDTVETQLRFMTENGFSLRDGLYAISAVSHFTLGAVLEQQEHTAALTDRPAAPDENLPPLLREALQIMDSDDGEQAFLHGLESLIRGFEVQLTALLQIV | 85.7142 | 7.5138 |
| TetRrev96/99-17: revTetR(BD) G96T V99K (protein, Modified tetracycline repressor, revTetR(BD) G96T V99K) MSRLDKSKVINSALELLNEVGIEGLTTRKLAQKLGVEQPTLYWHVKNKRALLDALAVEILARHHDYSLPAAGESWQSFLRNNAMSFRRALLRYRDTAKKHLGTRPDEKQYDTVETQLRFMTENGFSLRDGLYAISAVSHFTLGAVLEQQEHTAALTDRPAAPDENLPPLLREALQIMDSDDGEQAFLHGLESLIRGFEVQLTALLQIV | 92.9198 | 8.4558 |
| TetRrev96/99-16: revTetR(BD) G96P V99Y (protein, Modified tetracycline repressor, revTetR(BD) G96P V99Y) MSRLDKSKVINSALELLNEVGIEGLTTRKLAQKLGVEQPTLYWHVKNKRALLDALAVEILARHHDYSLPAAGESWQSFLRNNAMSFRRALLRYRDPAKYHLGTRPDEKQYDTVETQLRFMTENGFSLRDGLYAISAVSHFTLGAVLEQQEHTAALTDRPAAPDENLPPLLREALQIMDSDDGEQAFLHGLESLIRGFEVQLTALLQIV | 93.7512 | 9.8301 |
